Measured values published in the RNAGym collection of RNA variant scans (doi:10.1073/pnas.2313332121).

B1: TPR t1 (parent)
chain: GACCAAUCUGCCCUCAGAGCUCGAGAACAUCUUCGGAUGCAGAGGAGGCAGGCUUCGGUGGCGCGAUAGCGCCAACGUCCUCAACCUCCAAUGCAUCCCACCACAUGAUGAUGCCUGAAGAGCCUUGGUUUUUUG

Variants of: B1
Assay: polymerase ribozyme fitness, log enrichment relative to wild type (log ratio); higher = more active; in vitro selection for triplet polymerase activity
Summary of the method: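 Frozen incubation at −7 °C formed the core of a single, triplicate in vitro selection round applied to PCR-built, transcribed mutant libraries of each subunit of a heterodimeric triplet polymerase ribozyme. Extended constructs were gel-excised, captured with streptavidin beads and amplified by RT-PCR, and input and output libraries were Illumina-sequenced with a filter of ≥10 input reads and ≥1 read per output. Fitness is the logarithm of genotype enrichment relative to wild-type enrichment, with inverse-variance-weighted replicate averaging, and the logarithm is base 2.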

| Variant | polymerase ribozyme fitness (log ratio) |
| --- | --- |
| GACCAAUCUGCCCUCAGAGCUCGAGAACAUCUUUGGAUGCAGAGGAGGCAGGCAUCGGUGGCGCGAUAUCGCCAACGUUCUCAACCUCCAAUACAACCCACCACAUGAUGAUGCCUGAAGAGCCUUGGUUUUUUG | -6.73 |
| GACCAAUCUGCCCUCAGAGCUCGAGAACAUCUUUGGAUGCAGAGGAGGCAGGCUUCGGAGGCGCGAUAGCGCCAACGUCCUCAACCUCCAAUGCAUCCCACCACAAGAAGAUGCCUGAAAAGCCUUGGUUUUUUG | -5.08 |
| GACCAAUCUGCCCUCAGAGCUCGAGAACAUCUUUGGAUGCAGAGGAGGCAGGCUUCGGUGGCGCGAUAGCGCCAACGUCCUCAACCACCAAUGCAUCCCACCACAUGAUGAUGCCUGAAGAGCCUUGGUUUUUUG | -4.77 |
| GACCAAUCUGCCCUCAGAGCUCGAGAACAUCUUUGGAUGCAGAGGAGGCAGGCUUCGGUGGCGCGAUAGCGCCAACGUCCUCAACCUCCAAAGCAUCCCACCACAUGAUGAUGCCUGAAGAGCCUUGGUUUUUUG | -6.09 |
| GACCAAUCUGCCCUCAGAGCUCGAGAACAUCUUUGGAUGCAGAGGAGGCAGGCUUCGGUGGCGCGAUAGCGCCAACGUCCUCAACCUCCAAUGCAUCCCACCACAUGAUGAUGCCUGAAGAGCCAUGGUUUUUUG | -4.8 |
| GACCAAUCUGCCCUCAGAGCUCGAGAACAUCUUCAGUUGCAGAGGAGGCAGGCUUCGGUGGCGCGAUAGCGCCAACGUCCUCAACCGCCAAUGCAUCCCACCACAUGAUGAUGCCUGAAGAGCCUUGGUUUUUUG | -5.66 |
| GACCAAUCUGCCCUCAGAGCUCGAGAACAUCUUCAGAUGCAGAGGUGGCAGGCUUCGGUGGCGCGAUAGCGCCAACGUCCUCUACCCCCAAUGCAUCCCACCAUAUGAUGAUGCCUGAAGAGCCUUGGUUUUUUG | -4.09 |
| GACCAAUCUGCCCUCAGAGCUCGAGAACAUCUUCAGAUGCAGAGGAGGCAGGCUUCGGUGGCGCGAUAGCGCCCACGUCCUCAACCUCCAAUGCAUCCCAUCACAUGAUGAUGCCUGAAGAGCCUUGGUUUUUUG | -4.16 |
| GACCAAUCUGCCCUCAGAGCUCGAGAACAUCUUCAGAUGGAGAGGAGGCAGGCUUCGGUGGCGCGAUAGCGCCAACGUCCUCAACCUCCAAUGCAUCUCACCACAUGAUGAUGCCUGAAGAGGCUUGGUUUUUUG | -0.89 |
| GACCAAUCUGCCCUCAGAGCUCGAGAACAUCUUCAGAUGCAGAGGAGGCAGGGUUCGGUGGUGCGAUAGCGCCAACCUCCUCACCCUCCAAUGCAUCCCACCACAUGAUGAUGCCUGAAGAGCGUUGGUUUUUUC | -3.97 |
| GACCAAUCUGCCCUCAGAGCUCGAGAACAUCUUCAGAUGCAGAGGAGGCAGGCUUCGGUGGCGUGAUAGCGCCAACGUCCUCAACCGCCAAUGCAUCCCACCACAUGAUGAUGCCUGAAGAGCCUUGGUUUUUUG | -4.86 |
| GACCAAUCUGCCCUCAGAGCUCGAGAACAUCUUCAGAUGCAGAGGAGGCAGGCUUCGGUGGCGCGAUAGCGGCAACGUCCUCAACCUCCAAUGCAUCCCACCACAUGAUGACGCCUGAAGAGCCUUGGUUUUUUG | -2.35 |
| GACCAAUCUGCCCUCAGAGCUCGAGAACAUCUUCAGAUGCAGAGGAGGCAGGCUUCGGUGGCGCGAUAGCGUCAACGUCCUCAACCUCCAAUGCAUCACACCACAUGAUGAUGCCUUAAGAGCCUUGGUUUUUUG | -7.49 |
| GACCAAUCUGCCCUCAGAGCUCGAGAACAUCUUCAGAUGCAGAGGAGGCAGGCUUCGGUGGCGCGAUAGCGCUAACGGCCUCAACCUCCGAUGCAUCCCACCACAUGAUGAUGCGUGAAGCGCCUUGGUUUUUUG | -5.51 |
| GACCAAUCUGCCCUCAGAGCUCGAGAACAUCUUCAGAUGCAGAGGAGGCAGGCUUCGGUGGCGCGAUAGCGCCAACGUCCUCAACCUCCAAUGCAUCGCACCACAUGAUGAUGCCUGAAGAGCCUUGGUUUUUUG | -6.5 |
| GACCAAUCUGCCCUCAGAGCUCGAGAACAUCUUCAGAUACAGAGGAGGCAGGCUUCGGUGGCGCGAUAGUGUCAACGUCCUCAACCUCCAAUGCAUCCCACCACAUGAGGAUGCCUGAAGAGCUUUGGUUUUUUG | -7.05 |
| GACCAAUCUGCCCUCAGAGCUCGAGAACAUCUUCAGAUGCAAAGGAGGCAGGCUUCGGUGGCGCGAUAGCGCCAACGUCCUCAACCUCCAAUGCAUCCCACCACAAGAUGAGGCCUGAAGCGCCUUUAUUUUUUG | -5.37 |
| GACCAAUCUGCCCUCAGAGCUCGAGAACAUCUUCAGAUGCACAGGAGGCAGGCUUCGGUGGCGCGAUAGCGCCAACGUCCUCAACCUCCAAUGCAUCCCACCACAUGAUGAUGCCUGAAGAGCCUUGGUUUUUUG | -5.64 |
| GACCAAUCUGCCCUCAGAGCUCGAGAACAUCUUCAGAUGCAGAGGAGGCAGCCUUCGGUGGCGCGAUAGCGCCAACGUCCUCAACUUCCAAUGCAUCCCACCACAUGAUGAUGCCUGAAGAGCCUUGGUUUUUUG | -6.34 |
| GACCAAUCUGCCCUCAGAGCUCGAGAACAUCUUCAGAUGCAGAGGAGGCAGGCUUCUGUGGCGCGAUAGCGCCUACGUCCUCAACCUCCAAUGCAUCCCACCACAUGAUGAUGCCUGAAGAGCCUUGGUUUUUUG | -4.21 |
| GACCAAUCUGCCCUCAGAGCUCGAGAACAUCUUCAGAUGCAGAGGAGGCAGGCUUCGGUGCCGCGAUAGCGCCAACGUCCUCAACCUCCAAUGCAUCCCACCACAUGAUGAUGCCUGAAGAGCCUUGGUUUUUUG | -5.94 |
